{"source": "paper doi:10.1101/2025.06.20.660733", "key": {"[1]": {"biological_target": "neuraminidase of A/cattle/Texas/56283/2024 (H5N1), recombinant head domain (influenza A virus A/cattle/Texas/56283/2024 (H5N1))"}, "[2]": {"biological_target": "neuraminidase of A/Moscow/10/1999 (H3N2), recombinant head domain (influenza A virus A/Moscow/10/1999 (H3N2))"}}, "data": [{"binder": "HB420 (human IgG1) (antibody, V domains shown) VH: EVQLVESGAEVKKPGSSVKVSCMASGGSFGSYGFSWVRQAPGQGLEWMGGIIPLFDTPNYAQKFQGRVTITADASTSTVYMELSSLRSEDTAVYYCARDSLPYGDQNYYYGMHVWGQGTTVTVSS VL: QSALTQPASLSGSPGQSITISCSGSSSDIGDYNYVSWYQQHPGKAPKLIIYDVTNRPSGVSDRLSGSKSGTTASLTISGLQAEDEADYYCSSYGGNYNLVFGGGTKLTVL", "values": [{"measurement": "NA inhibition of recombinant NA by enzyme-linked lectin assay (ELLA), IC50", "setting": "[1]", "value": 50, "unit": "mg/L"}, {"measurement": "NA inhibition of recombinant NA by enzyme-linked lectin assay (ELLA), IC50", "setting": "[2]", "value": 0.19, "unit": "mg/L"}]}]}
